# From patent publication US20250215104A1 (WALDEN BIOSCIENCES, published 2025)
# Numbering of substitutions follows the chain as printed.
# B1: suPAR_DB02_H09 (scFv, V domains shown)
# VH: QVQLVQSGAEVKKPGASVKVSCKASGYTFTSYYMHWVRQAPGQGLEWMGWIDPENGNTIYAQKFQGRVTMTRDTSTSTVYMELSSLRSEDTAVYYCARGYDVDWFVFWGQGTLVTVSS
# VL: DIQMTQSPSSLSASVGDRVTITCSARSSVSYMYWYQQKPGKAPKLLIYATSNLQSGVPSRFSGSGSGTDFTLTISSLQPEDFATYYCQQYHSYPPTFGGGTKVEIK
# notes: screened as scFv
# B2: suPAR_DB02_H10 (scFv, V domains shown)
# VH: B1 VH with P53H, E54S, A61D, F107Y
# VL: B1 VL with S27Q, A49R, Q54A
# notes: screened as scFv
# B3: suPAR_DB03_D02 (scFv, V domains shown)
# VH: B1 VH with S31R, M34L, F107Y
# VL: B1 VL with A49R, Q54A
# notes: screened as scFv
# B4: suPAR_DB03_B04 (scFv, V domains shown)
# VH: B1 VH with S31G, M48I, D52T, E54D, N55S, N57G, I59V, F107Y
# VL: B1 VL with R26S, V29I, A49R, Q54A
# notes: screened as scFv
# B5: suPAR_DB03_A06 (scFv, V domains shown)
# VH: B1 VH with Y27F, T28N, F29I, S31D, M34I, N57S, F107Y
# VL: B1 VL with S27Q, V29I, A49R, Q54A
# notes: screened as scFv
# B6: suPAR_DB03_C12 (scFv, V domains shown)
# VH: B1 VH with Y27N, S31N, P53H, I59S, A61D, F107Y
# VL: B1 VL with A49R, Q54A
# notes: screened as scFv
# B7: suPAR_DB03_D08 (scFv, V domains shown)
# VH: B1 VH with S31G, N57S, A61D, F107Y
# VL: B1 VL with S27Q, A49R, Q54A
# notes: screened as scFv
# B8: suPAR_DB03_B06 (scFv, V domains shown)
# VH: B1 VH with T28N, F29I, S31D, M34I, N57S, A61D, F107Y
# VL: B1 VL with A49R, Q54A
# notes: screened as scFv
# B9: suPAR_DB03_B08 (scFv, V domains shown)
# VH: B1 VH with T28A, S31G, P53H, A61D, F107Y
# VL: B1 VL with S24R, S27Q, A49R, Q54A
# notes: screened as scFv
# B10: suPAR_DB03_D01 (scFv, V domains shown)
# VH: QVQLVQSGAEVKKPGASVKVSCKASGFNIKDYYIHWVRQAPGQGLEWMGWMDPNSGGTNYAQKFQGRVTMTRDTSTSTVYMELSSLRSEDTAVYYCARGYDVDWFVYWGQGTLVTVSS
# VL: B1 VL with A49R, Q54A
# notes: screened as scFv
# B11: suPAR_DB03_C03 (scFv, V domains shown)
# VH: B1 VH with S31G, P53H, N57S, I59S, A61D, R98S, F107Y
# VL: B1 VL with A49G, T50A
# notes: screened as scFv
# B12: suPAR_DB03_D05 (scFv, V domains shown)
# VH: B1 VH with Y27D, T28N, S31T, F107Y
# VL: B1 VL with A49R, Q54A
# notes: screened as scFv
# B13: suPAR_DB03_C07 (scFv, V domains shown)
# VH: B1 VH with S31N, M34V, P53H, N57S, A61D, F107Y
# VL: B1 VL with A49R, Q54A
# notes: screened as scFv
# B14: suPAR_DB03_E04 (scFv, V domains shown)
# VH: B1 VH with S31G, Y32H, N57S, A61D, F107Y
# VL: B1 VL with A49R, Q54A
# notes: screened as scFv
# B15: suPAR_DB03_D04 (scFv, V domains shown)
# VH: B1 VH with S31N, N57S, A61D, F107Y
# VL: B1 VL with A49R, Q54A, Y90S
# notes: screened as scFv
# B16: suPAR_DB03_A11 (scFv, V domains shown)
# VH: B1 VH with M48V, I51M, E54N, N55S, N57G, I59S, F107Y
# VL: B1 VL with A49R, Q54A
# notes: screened as scFv
# B17: suPAR_DB03_C08 (scFv, V domains shown)
# VH: B1 VH with Y27G, S31N, P53H, N57S, F107Y
# VL: B1 VL with A49R, N52S, Q54A
# notes: screened as scFv
# B18: suPAR_DB03_C04 (scFv, V domains shown)
# VH: B10 VH with M51I, N54E, S55N, G57S, N59I, A61D
# VL: B1 VL with R26S, V29I, A49R, N52S, Q54A
# notes: screened as scFv
# B19: suPAR_DB03_B05 (scFv, V domains shown)
# VH: B1 VH with A61D, V102I, F107Y
# VL: B1 VL with S27Q, A49R, Q54A
# notes: screened as scFv
# B20: suPAR_DB03_C02 (scFv, V domains shown)
# VH: B1 VH with T28S, S31N, M34I, P53H, A61D, Y100N, F107Y
# VL: B1 VL with A49R, Q54A
# notes: screened as scFv
# B21: suPAR_DB03_A05 (scFv, V domains shown)
# VH: B1 VH with T30S, P53H, F107Y
# VL: B1 VL with A49R, N52S, Q54A
# notes: screened as scFv
# B22: suPAR_DB03_A03 (scFv, V domains shown)
# VH: B1 VH with S31G, P53H, N57S, A61D, R98V, F107Y
# VL: B1 VL with A49R, Q54A
# notes: screened as scFv
# B23: suPAR_DB03_A10 (scFv, V domains shown)
# VH: B1 VH with T30S, S31N, P53H, N57S, F107Y
# VL: B1 VL with A49R, Q54A
# notes: screened as scFv
# B24: suPAR_DB03_A08 (scFv, V domains shown)
# VH: B1 VH with S31G, P53H, N57S, F107Y
# VL: B1 VL with R26S, A49R, Q54A
# notes: screened as scFv
# B25: suPAR_DB03_D12 (scFv, V domains shown)
# VH: B1 VH with T30S, S31N, F107Y
# VL: B1 VL with S24R, A49R
# notes: screened as scFv
# B26: suPAR_DB03_C06 (scFv, V domains shown)
# VH: B1 VH with S31D, M34V, P53H, N55G, N57S, I59S, A61D, F107Y
# VL: B1 VL with R26S, A49R, Q54A
# notes: screened as scFv
# B27: suPAR_DB03_D07 (scFv, V domains shown)
# VH: B1 VH with Y27N, S31N, M34V, E54S, A61D, F107Y
# VL: B1 VL with A49R, Q54A
# notes: screened as scFv
# B28: suPAR_DB03_D03 (scFv, V domains shown)
# VH: B1 VH with S31G, M34I, F107Y
# VL: B1 VL with S24R, S27Q, A49R, Q54A
# notes: screened as scFv
# B29: suPAR_DB03_B10 (scFv, V domains shown)
# VH: B1 VH with S31G, P53H, A61D, Y100T, F107Y
# VL: B1 VL with R26S, V29I, A49R, Q54A
# notes: screened as scFv
# B30: suPAR_DB03_C01 (scFv, V domains shown)
# VH: B1 VH with Y27S, F29S, S31D, Y32H, M34V, P53H, N55G, N57S, F107Y
# VL: B1 VL with A49R, Q54A
# notes: screened as scFv
# B31: suPAR_DB03_E03 (scFv, V domains shown)
# VH: B1 VH with F29V, S31N, P53H, A61D, F107Y
# VL: B1 VL with S24R, A49R, Q54A
# notes: screened as scFv
# B32: suPAR_DB03_B02 (scFv, V domains shown)
# VH: B1 VH with Y27D, P53H, N57S, I59S, A61D, F107Y
# VL: B1 VL with A49R, Q54A
# notes: screened as scFv
# B33: suPAR_DB03_E02 (scFv, V domains shown)
# VH: B1 VH with T28N, S31G, M34I, P53H, F107Y
# VL: B1 VL with A49R, Q54A
# notes: screened as scFv
# B34: suPAR_DB03_D10 (scFv, V domains shown)
# VH: B1 VH with F107Y
# VL: B1 VL with A49R
# notes: screened as scFv
# B35: suPAR_DB03_C10 (scFv, V domains shown)
# VH: B1 VH with P53H, N55G, N57S, R98S, F107Y
# VL: B1 VL with A49R, Q54A
# notes: screened as scFv
# B36: suPAR_DB03_B01 (scFv, V domains shown)
# VH: B1 VH with Y27N, S31G, Y32H, H35Q, P53H, I59S, F107Y
# VL: B1 VL with A49R, Q54A
# notes: screened as scFv
# B37: suPAR_DB03_A09 (scFv, V domains shown)
# VH: B1 VH with Y32H, M34V, P53H, E54S, N57S, A61D, F107Y
# VL: B1 VL with S27Q, V29I, A49R, Q54A
# notes: screened as scFv
# B38: suPAR_DB03_D06 (scFv, V domains shown)
# VH: B1 VH with T28S, S31N, P53H, I59S, F107Y
# VL: B1 VL with A49R, Q54A
# notes: screened as scFv
# B39: suPAR_DB03_D09 (scFv, V domains shown)
# VH: B1 VH with S31G, P53H, N57S, F107Y
# VL: B1 VL with A49R
# notes: screened as scFv
# B40: suPAR_DB03_B09 (scFv, V domains shown)
# VH: B10 VH with F27Y, D31S, M51I, N54E, S55G, G57S, N59I, A61D
# VL: B1 VL with A49R, Q54A
# notes: screened as scFv
# B41: suPAR_DB03_C09 (scFv, V domains shown)
# VH: B1 VH with P53H, N57S, A61D, F107Y
# VL: B1 VL with S27Q, A49R, Q54A
# notes: screened as scFv
# Tests used:
# [1] = biological target: T1, cynomolgus suPAR (cynomolgus, UniProt Q9GK78 23-303, limits assumed); assay: BLI (Octet) off-rate screen of scFv clones
# T1 construct: Target antigen of the off-rate screen; also called cynomolgus uPAR; cynoPLAUR-His
# [2] = biological target: T2, human soluble urokinase plasminogen activator receptor (hsuPAR) (human, UniProt Q03405 23-303, limits assumed); assay: BLI (Octet) off-rate screen of scFv clones
# T2 construct: Target antigen of the off-rate screen; also called human suPAR; rhuPAR-His
# T2 sequence (Q03405 23-303 limits assumed): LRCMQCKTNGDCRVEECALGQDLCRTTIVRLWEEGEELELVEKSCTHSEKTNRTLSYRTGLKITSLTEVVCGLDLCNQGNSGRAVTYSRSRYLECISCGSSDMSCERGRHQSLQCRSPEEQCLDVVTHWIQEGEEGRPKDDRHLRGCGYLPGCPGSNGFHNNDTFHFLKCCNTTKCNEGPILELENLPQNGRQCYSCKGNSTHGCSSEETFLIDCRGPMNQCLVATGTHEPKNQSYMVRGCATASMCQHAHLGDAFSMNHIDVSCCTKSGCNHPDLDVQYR
# T1 sequence (Q9GK78 23-303 limits assumed): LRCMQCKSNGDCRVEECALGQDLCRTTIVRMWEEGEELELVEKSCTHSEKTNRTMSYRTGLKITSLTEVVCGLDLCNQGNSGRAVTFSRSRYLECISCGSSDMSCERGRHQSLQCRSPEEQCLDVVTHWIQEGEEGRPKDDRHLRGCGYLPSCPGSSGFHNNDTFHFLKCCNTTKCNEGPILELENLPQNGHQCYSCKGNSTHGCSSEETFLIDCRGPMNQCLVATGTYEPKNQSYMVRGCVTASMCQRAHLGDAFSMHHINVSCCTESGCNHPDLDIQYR
Binder,koff [1] [s⁻¹],koff [2] [s⁻¹]
B1,0.00218,0.0338
B2,0.000189,0.00344
B3,0.000241,0.00755
B4,4.52e-07,0.00197
B5,6.32e-07,0.00302
B6,7.59e-05,0.00396
B7,0.000482,0.00458
B8,1.08e-05,0.00352
B9,0.000226,0.00133
B10,8.49e-05,0.00416
B11,0.00108,0.00464
B12,3.55e-05,0.00482
B13,5.78e-05,0.00166
B14,0.000669,0.00556
B15,0.0059,0.00325
B16,7.99e-05,0.00181
B17,9.98e-05,0.00103
B18,4.37e-07,0.00301
B19,0.000126,0.00536
B20,0.000366,0.00534
B21,0.000259,0.0026

Binder,koff [1] [s⁻¹],koff [2] [s⁻¹]
B22,0.000319,0.00199
B23,0.000685,0.000838
B24,0.000269,0.000306
B25,0.000263,0.0057
B26,0.000189,0.00318
B27,0.000163,0.00308
B28,0.000156,0.00258
B29,0.000138,0.004
B30,0.000165,0.00366
B31,0.000132,0.00231
B32,0.000148,0.0024
B33,0.000258,0.00358
B34,0.000286,0.00527
B35,0.000301,0.00452
B36,0.000343,0.00297
B37,0.000254,0.00132
B38,0.000388,0.00295
B39,0.000508,0.000746
B40,0.000126,0.00421
B41,3.75e-07,0.00103
